First the molecules themselves.
B1: VapB11 (shorter form, VapB11^6-72), (6x-His)-VapB11 (domain or fragment)
chain: MSRTNIDIDDELAAEVMRRFGLTTKRAAVDLALRRLVGSPLSREFLLGLEGVGWEGDLDDLRSDRPD
notes: Homodimer by AUC; also called antitoxin VapB11
B2: VapC11 toxin (purified alone) (enzyme)
chain: ILIDTSAWVEYFRATGSIAAVEVRRLLSEEAARIAMCEPIAMEILSGALDDNTHTTLERLVNGLPSLNVDDAIDFRAAAGIYRAARRAGETVRSINDCLIAALAIRHGARIVHRDADFDVIARITNLQAASFR
notes: VapC11 toxin (PIN domain ribonuclease) of the VapBC11 toxin-antitoxin system, Mycobacterium tuberculosis; 134 amino acids as printed; also called wild-type protein

Several values for one entry are separate records, joined by “and”; a condition that tells them apart may be missing. Equal values may be shown once.

The target of series [1] is B2. The experiment in a line: SPR; Biacore 3000; VapC11 immobilised on a CM5 chip (up to 750 RU); five concentrations of VapB11 injected; 10 mM HEPES (pH 7.5), 150 mM NaCl, 25°C, 20 μl/min; 1:1 Langmuir model with drifting baseline. To be noted: both partners purified. Background: Surface plasmon resonance follows binding to a sensor surface in real time, without labels.

Series [2] deals with the molecule itself. The experiment in a line: […] (pH 8.0), 150 mM NaCl, […].
The series “AUC” concerns the molecule itself. The series can be described thus: AUC.

In general, Kd refers to the concentration at which binding is half-saturated. Lower therefore signals higher affinity. Usually koff stands for the rate constant with which the complex falls apart. A higher koff goes with fast dissociation. What is called kon is the rate constant with which the complex forms. Higher therefore signals fast association. What is called stoichiometry N is the number of molecules, sites or subunits per partner or assembly.

As to B1, in series [1], the Kd was about 0.6 nM, the koff turned out to be 0.000133 s⁻¹ and the kon is 1.15e+06 M⁻¹ s⁻¹. In series [2], the “stoichiometry N” value worked out at 2.

On to B2, for which the “stoichiometry N” value in the series “AUC” is 2 and 4.

Source of the values: article PMC6265470, “Structural, functional and biological insights into the role of Mycobacterium tuberculosis VapBC11 toxin–antitoxin system: targeting a tRNase to tackle mycobacterial adaptation” (Nucleic Acids Research, 2018).
